From paper PMC11739670 (European Journal of Immunology, 2024)
Several values for one entry are separate records, joined by “and”; a condition that tells them apart may be missing. Equal values may be shown once.

Assays:
Settings in all cases: both partners purified
[1] = target: T1, MHCI-related protein 1 (MR1) with β2m, loaded with 5-(2-oxopropylideneamino)-6-d-ribitylaminouracil (human, UniProt Q95460 23-302; P61769 21-119, biotin on the Avi-tag (BirA ligase)); test: SPR; BIAcore T200, CM5 chip with streptavidin; biotinylated pMHCI, MR1 or CD1 captured; serial dilution of CD8-Fc fusion injected; 25°C, PBS with 0.005% Tween 20; steady-state responses, 1:1 Langmuir fit
T1 construct: MR1 heavy chain, human; beta-2 microglobulin; Small-molecule cargo: 5-OP-RU; Same protein chains as Dm12 and Dm13; they differ in the cargo only; also called MR1-5OPRU; not shown: Avi-tag, C-terminal, kept

[2] = target: T2, MHCI-related protein 1 (MR1) with β2m, loaded with 6-formylpterin (human, UniProt Q95460 23-302; P61769 21-119, biotin on the Avi-tag (BirA ligase)); test: as above
T2 construct: MR1 heavy chain, human; beta-2 microglobulin; Small-molecule cargo: 6-formylpterin; Same protein chains as Dm11 and Dm13; they differ in the cargo only; also called MR1-6FP; not shown: Avi-tag, C-terminal, kept

[3] = target: T3, MHCI-related protein 1 (MR1) with β2m, loaded with 5-formyl salicylic acid (human, UniProt Q95460 23-302; P61769 21-119, biotin on the Avi-tag (BirA ligase)); test: as above
T3 construct: MR1 heavy chain, human; beta-2 microglobulin; Small-molecule cargo: 5-formyl salicylic acid; Same protein chains as Dm11 and Dm12; they differ in the cargo only; also called MR1-5FSA; not shown: Avi-tag, C-terminal, kept

[4] = target: HLA-A*01:01 with peptide … (human | , biotin on the Avi-tag (BirA ligase)); test: as above
[5] = target: HLA-A*02:01 with peptide … (human | , biotin on the Avi-tag (BirA ligase)); test: as above
[6] = target: HLA-A*02:01 with peptide … (human | , biotin on the Avi-tag (BirA ligase)); test: as above; remark: listed apart in the source
[7] = target: HLA-A*03:01 with peptide … (human | , biotin on the Avi-tag (BirA ligase)); test: as above
[8] = target: HLA-A*01:01 peptide-MHC class I (biotinylated pMHCI) (human | , biotin on the Avi-tag (BirA ligase)); test: SPR; biotinylated ligands (pMHCI, MR1, CD1) captured on streptavidin coupled to a CM5 chip; serial dilution of each CD8-Fc fusion injected; steady-state responses, 1:1 Langmuir fit; BIAcore T200, 25°C, PBS with 0.005% Tween 20
[9] = target: HLA-A*02:01 peptide-MHC class I (biotinylated pMHCI) (human | , biotin on the Avi-tag (BirA ligase)); test: as above
[10] = target: T4, MHCI-related protein 1 (MR1) with β-2 microglobulin, biotinylated, loaded with model ligands (human | , UniProt Q95460 23-292; P61769 21-119, biotin on the Avi-tag (BirA ligase)); test: as above
T4 construct: MR1 heavy chain, human; β-2 microglobulin; Small-molecule cargoes: 5-(2-oxopropylideneamino)-6-d-ribitylaminouracil, 6-formylpterin, 5-formyl salicylic acid; not shown: Avi-tag, C-terminal, kept

| Binder | Kd [1] | Kd [2] | Kd [3] | Kd [4] [µM] | Kd [5] [µM] | Kd [6] | Kd [7] [µM] | Kd [8] [µM] | Kd [9] | Kd [10] [µM] |
| --- | --- | --- | --- | --- | --- | --- | --- | --- | --- | --- |
| soluble human CD8αβ-Fc heterodimer (Fc fusion, CD8 alpha extracellular domain, human, Uniprot P01732, residues 22-182; CD8 beta extracellular domain, human, Uniprot P10966, residues 22-170; Cloned in pFUSE-hIgG1e3 behind a mouse kappa light-chain secretion signal; source: ExpiCHO, purified (protein A, gel filtration); copies: 1 + 1) chain 1: not shown chain 2: LQQTPAYIKVQTNKMVMLSCEAKISLSNMRIYWLRQRQAPSSDSHHEFLALWDSAKGTIHGEEVEQEKIAVFRDASRFILNLTSVKPEDSGIYFCMIVGSPELTFGKGTQLSVVDFLPTTAQPTKKSTLKKRVCRLPRPETQKGPLCSP | 228 µM and 233 µM | 250 µM and 220 µM | 267 µM and 285 µM | 101 | 238 | 255 µM and 244 µM | 147 | – | – | – |
| soluble human CD8αβ-Fc heterodimer (Fc fusion, CD8α extracellular domain, human, Uniprot P01732, residues 22-182; CD8β extracellular domain, human, Uniprot P10966, residues 22-170; Cloned into pFUSE-hIgG1e3 downstream of a mouse kappa light-chain secretion signal, subcloned into pcDNA3.1; source: ExpiCHO, purified (protein A, gel filtration on Superdex 200); copies: 1 + 1) chain 1: not shown chain 2: LQQTPAYIKVQTNKMVMLSCEAKISLSNMRIYWLRQRQAPSSDSHHEFLALWDSAKGTIHGEEVEQEKIAVFRDASRFILNLTSVKPEDSGIYFCMIVGSPELTFGKGTQLSVVDFLPTTAQPTKKSTLKKRVCRLPRPETQKGPLCSP | – | – | – | – | – | – | – | 107 | 189 µM and ~230 µM | ~250 |
